# Assay results: article PMC8139713
# Biological target: ACE2-Fc (soluble human ACE2 fused to human IgG Fc) (human) (UniProt Q9BYF1)
# Experiment: BLI
# Sequence of ACE2-Fc (soluble human ACE2 fused to human IgG Fc) (human) (Q9BYF1 18-738): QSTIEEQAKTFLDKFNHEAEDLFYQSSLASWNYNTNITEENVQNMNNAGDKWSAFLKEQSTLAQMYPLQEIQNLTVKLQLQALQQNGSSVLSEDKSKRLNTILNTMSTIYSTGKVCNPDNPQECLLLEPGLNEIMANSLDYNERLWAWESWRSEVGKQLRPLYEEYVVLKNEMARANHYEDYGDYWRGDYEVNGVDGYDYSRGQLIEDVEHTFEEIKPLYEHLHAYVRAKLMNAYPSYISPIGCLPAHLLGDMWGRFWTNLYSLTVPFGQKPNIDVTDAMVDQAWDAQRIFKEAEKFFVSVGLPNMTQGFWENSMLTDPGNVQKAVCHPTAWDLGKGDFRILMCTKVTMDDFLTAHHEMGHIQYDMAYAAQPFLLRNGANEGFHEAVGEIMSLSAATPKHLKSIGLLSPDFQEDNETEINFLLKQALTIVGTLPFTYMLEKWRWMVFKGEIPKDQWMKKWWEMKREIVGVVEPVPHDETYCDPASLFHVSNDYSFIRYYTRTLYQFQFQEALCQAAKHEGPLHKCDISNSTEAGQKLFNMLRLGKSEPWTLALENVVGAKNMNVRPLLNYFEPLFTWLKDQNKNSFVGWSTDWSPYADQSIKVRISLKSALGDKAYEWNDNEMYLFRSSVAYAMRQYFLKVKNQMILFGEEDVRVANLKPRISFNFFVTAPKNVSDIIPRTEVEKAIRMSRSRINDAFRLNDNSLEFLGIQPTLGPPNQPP
substance,measurement,value
wild-type SARS-CoV-1 S-Trimer (from UniProt P59594 14-1193) (domain or fragment),Kd,1.2 nM
